Values joined by “and” are separate entries in the source; they are usually repeats but may differ in a detail not shown here. Identical values can stand only once.
Columns and labels:
[1] = biological target: SoxR Cys50Ser Cys116Ser, Strep-tagged (Hyphomicrobium denitrificans); assay: SEC; Superdex 75 Increase 10/300 GL, calibrated with mass standards; 50 mM Tris-HCl, pH 8.0, 150 mM NaCl; 0.8 mL/min; self-association of SoxR
[2] = biological target: Hyphomicrobium denitrificans SoxR, Strep-tagged wild type (Hyphomicrobium denitrificans); assay: as above
[3] = biological target: SoxR Cys116Ser, Strep-tagged (Hyphomicrobium denitrificans); assay: as above
[4] = biological target: T1, SoxR (Hyphomicrobium denitrificans) (UniProt D8JT35); assay: EMSA; conditions: EMSA: 10 mM Tris-HCl pH 8.0, 50 mM KCl, 1 mM DTT, about 7% glycerol, 17 nM DNA, 15 ul; 20 min at room temperature, then 30 min at 30 C with DNA; 6% native gel …
T1 sequence: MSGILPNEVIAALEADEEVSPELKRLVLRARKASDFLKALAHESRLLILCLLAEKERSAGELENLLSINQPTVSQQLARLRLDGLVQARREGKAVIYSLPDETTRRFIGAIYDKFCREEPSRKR

[5] = biological target: SoxR Cys50Ser, Strep-tagged (Hyphomicrobium denitrificans); assay: SEC; Superdex 75 Increase 10/300 GL, calibrated with mass standards; 50 mM Tris-HCl, pH 8.0, 150 mM NaCl; 0.8 mL/min; self-association of SoxR

In the case of “SoxR Cys50Ser Cys116Ser, Strep-tagged (natural protein)”, the stoichiometry N [1] was 2 and 4.
In the case of “Hyphomicrobium denitrificans SoxR, Strep-tagged wild type (natural protein)”, the stoichiometry N [2] was 2 and 4.
In the case of “SoxR Cys116Ser, Strep-tagged (natural protein)”, the stoichiometry N [3] was 2 and 4.
In the case of “GGGTCACCAAATTCTGCAGGTCTCAATGCGAATGCGAGGCTGCTCCAGCTAGACGAAAAACAAGGAACGTTGCAATAGATAATTCACATATGATAATTTTCATATGTGTTATAGGATGAACGTTATCGCAGCTTCCGGGAGAGATGGCGTGAT (double strand) [soxA-soxY intergenic fragment, 151 bp]”, the binding [4] was “binds”.
In the case of “SoxR Cys50Ser, Strep-tagged (natural protein)”, the stoichiometry N [5] was 2 and 4.

Source: publication PMC10451225
